From patent US20260049138A1 (Chugai, published 2026)

Legend:
human CD154 = molecular target: T1, human CD154 (human, UniProt P29965 113-261, limits assumed, biotin-labeled); assay: ECL competition, CD3ε[+]: CD3ε homodimer added as competitor [2]
T1 construct: also called biotin-labeled human CD154; biotinylated human CD154
T1 sequence (looked up): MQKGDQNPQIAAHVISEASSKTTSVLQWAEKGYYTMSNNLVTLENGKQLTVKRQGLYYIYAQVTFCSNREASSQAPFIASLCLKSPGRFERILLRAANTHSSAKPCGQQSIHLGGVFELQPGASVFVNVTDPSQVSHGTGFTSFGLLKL
Method: Next, each obtained IgG was evaluated for its binding to CD3 and human CD154 at the same time by the competition method (electrochemiluminescence method (ECL method)).
A TBST solution containing 0.5% BSA (referred to as a blocking solution; the TBST solution was TBS (manufactured by Takara Bio Inc.) supplemented with 0.1% Tween 20) was added at 150 μL/well to streptavidin plate (MSD K.K.), and the plate was incubated at room temperature for 1 hour or longer. After removal of the blocking solution, each well was washed three times with 250 μL of a TBST solution. The antibody-antigen complex solution was added thereto at 50 μL/well, and the plate was incubated at room temperature for 1 hour so that the biotinylated antigen-antibody-detection sulfo-tag antibody complex solution bound via the biotinylated antigen to the streptavidin plate. After removal of the antibody-antigen complex solution, each well was washed three times with a TBST solution, and a solution of 4×READ buffer (MSD K.K.) diluted 2-fold with water was added thereto at 150 μL/well, followed by the detection of the luminescence signal of the sulfo-tag using Sector Imager 2400 (MSD K.K.).

CD3ε homodimer protein = molecular target: T2, CD3ε homodimer protein (human, UniProt P07766 23-126, limits assumed); assay: SPR (Biacore T200), one-arm antibody as analyte over immobilised CD3ε homodimer protein, single-cycle kinetics
T2 construct: also called human CD3ε homodimer protein
T2 sequence (P07766 23-126 limits assumed): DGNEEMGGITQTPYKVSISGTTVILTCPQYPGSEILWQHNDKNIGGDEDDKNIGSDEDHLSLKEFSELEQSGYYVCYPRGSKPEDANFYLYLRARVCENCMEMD

B1: 154R5A02#1 one-arm antibody (antibody, human IgG1, kappa, L234A L235A, N297A)
heavy: QVQLVESGGGLVQPGRSLRLSCAASGFTFSNAWMHWVRQAPGKGLEWVAQIKDRGNNYNTYYAPSVKGRFTISRDDSKNSIYLQMNSLKTEDTAVYYCRYVHYGSYFFSGSSFGVDIWGQGTTVTVSSASTKGPSVFPLAPSSKSTSGGTAALGCLVKDYFPEPVTVSWNSGALTSGVHTFPAVLQSSGLYSLSSVVTVPSSSLGTQTYICNVNHKPSNTKVDKKVEPKSCDKTHTCPPCPAPEAAGGPSVFLFPPKPKDTLMISRTPEVTCVVVDVSHEDPEVKFNWYVDGVEVHNAKTKPREEQYASTYRVVSVLTVLHQDWLNGKEYKCKVSNKALPAPIEKTISKAKGQPREPQVYTLPPSRCELTKNQVSLSCAVKGFYPSDIAVEWESNGQPENNYKTTPPVLDSDGSFFLVSKLTVDKSRWQQGNVFSCSVMHEALHNHYTQKSLSLSPDYKDDDDK
chain: EPKSSDKTHTCPPCPAPELLGGPSVFLFPPKPKDTLMISRTPEVTCVVVDVSHEDPEVKFNWYVDGVEVHNAKTKPREEQYNSTYRVVSVLTVLHQDWLNGKEYKCKVSNKALPAPIEKTISKAKGQPREPQVCTLPPSRDELTKNQVSLWCLVKGFYPSDIAVEWESNGQPENNYKTTPPVLDSDGSFFLYSKLTVDKSRWQQGNVFSCSVMHEALHNRYTQKSLSLSP
light: DIVMTQSPLSLPVTPGEPASISCRSSQSLVHSNRNTYLHWYQQKPGQAPRLLIYKVSNRFSGVPDRFSGSGSGTDFTLKISRVEAEDVGVYYCGQGTQVPYTFGQGTKLEIKRTVAAPSVFIFPPSDEQLKSGTASVVCLLNNFYPREAKVQWKVDNALQSGNSQESVTEQDSKDSTYSLSSTLTLSKADYEKHKVYACEVTHQGLSSPVTKSFNRGEC
notes: As m48
Human CD154
  relative ECL reaction (to no antigen coating): 10

B2: 154R5A02#2 one-arm antibody (antibody, human IgG1, kappa, L234A L235A, N297A)
heavy: QVQLVESGGGLVQPGRSLRLSCAASGFTFSNAWMHWVRQAPGKGLEWVAQIKDRGNNYNTYYAPSVKGRFTISRDDSKNSIYLQMNSLKTEDTAVYYCRYAHYGSYFFSGSSFGVDIWGQGTTVTVSSASTKGPSVFPLAPSSKSTSGGTAALGCLVKDYFPEPVTVSWNSGALTSGVHTFPAVLQSSGLYSLSSVVTVPSSSLGTQTYICNVNHKPSNTKVDKKVEPKSCDKTHTCPPCPAPEAAGGPSVFLFPPKPKDTLMISRTPEVTCVVVDVSHEDPEVKFNWYVDGVEVHNAKTKPREEQYASTYRVVSVLTVLHQDWLNGKEYKCKVSNKALPAPIEKTISKAKGQPREPQVYTLPPSRCELTKNQVSLSCAVKGFYPSDIAVEWESNGQPENNYKTTPPVLDSDGSFFLVSKLTVDKSRWQQGNVFSCSVMHEALHNHYTQKSLSLSPDYKDDDDK
chain: EPKSSDKTHTCPPCPAPELLGGPSVFLFPPKPKDTLMISRTPEVTCVVVDVSHEDPEVKFNWYVDGVEVHNAKTKPREEQYNSTYRVVSVLTVLHQDWLNGKEYKCKVSNKALPAPIEKTISKAKGQPREPQVCTLPPSRDELTKNQVSLWCLVKGFYPSDIAVEWESNGQPENNYKTTPPVLDSDGSFFLYSKLTVDKSRWQQGNVFSCSVMHEALHNRYTQKSLSLSP
light: DIVMTQSPLSLPVTPGEPASISCRSSQSLVHSNRNTYLHWYQQKPGQAPRLLIYKVSNRFSGVPDRFSGSGSGTDFTLKISRVEAEDVGVYYCGQGTQVPYTFGQGTKLEIKRTVAAPSVFIFPPSDEQLKSGTASVVCLLNNFYPREAKVQWKVDNALQSGNSQESVTEQDSKDSTYSLSSTLTLSKADYEKHKVYACEVTHQGLSSPVTKSFNRGEC
notes: As m48
Human CD154
  relative ECL reaction (to no antigen coating): 106

B3: 154R5E11#3 one-arm antibody (antibody, human IgG1, kappa, L234A L235A, N297A)
heavy: QVQLVESGGGLVQPGRSLRLSCAASGFTFSNAWMHWVRQAPGKGLEWVAQIKDRGNNYAAYYAESVKGRFTISRDDSKNSIYLQMNSLKTEDTAVYYCRYVHYGSYFFASFYFGVDIWGQGTAVTVSSASTKGPSVFPLAPSSKSTSGGTAALGCLVKDYFPEPVTVSWNSGALTSGVHTFPAVLQSSGLYSLSSVVTVPSSSLGTQTYICNVNHKPSNTKVDKKVEPKSCDKTHTCPPCPAPEAAGGPSVFLFPPKPKDTLMISRTPEVTCVVVDVSHEDPEVKFNWYVDGVEVHNAKTKPREEQYASTYRVVSVLTVLHQDWLNGKEYKCKVSNKALPAPIEKTISKAKGQPREPQVYTLPPSRCELTKNQVSLSCAVKGFYPSDIAVEWESNGQPENNYKTTPPVLDSDGSFFLVSKLTVDKSRWQQGNVFSCSVMHEALHNHYTQKSLSLSPDYKDDDDK
chain: EPKSSDKTHTCPPCPAPELLGGPSVFLFPPKPKDTLMISRTPEVTCVVVDVSHEDPEVKFNWYVDGVEVHNAKTKPREEQYNSTYRVVSVLTVLHQDWLNGKEYKCKVSNKALPAPIEKTISKAKGQPREPQVCTLPPSRDELTKNQVSLWCLVKGFYPSDIAVEWESNGQPENNYKTTPPVLDSDGSFFLYSKLTVDKSRWQQGNVFSCSVMHEALHNRYTQKSLSLSP
light: DIVMTQSPLSLPVTPGEPASISCRSSQSLVHSNRNTYLHWYQQKPGQAPRLLIYKVSNRFSGVPDRFSGSGSGTDFTLKISRVEAEDVGVYYCGQGTQVPYTFGQGTKLEIKRTVAAPSVFIFPPSDEQLKSGTASVVCLLNNFYPREAKVQWKVDNALQSGNSQESVTEQDSKDSTYSLSSTLTLSKADYEKHKVYACEVTHQGLSSPVTKSFNRGEC
notes: As m48
Human CD154
  relative ECL reaction (to no antigen coating): 1

B4: 154R5F08#1 one-arm antibody (antibody, human IgG1, kappa, L234A L235A, N297A)
heavy: QVQLVESGGGLVQPGRSLRLSCAASGFTFSNAWMHWVRQAPGKGLEWVAQIKDKGNQYATYYAESVKGRFTISRDDSKNSIYLQMNSLKTEDTAVYYCRYVHYGTYFFALPAFGVDIWGQGTTVTVSSASTKGPSVFPLAPSSKSTSGGTAALGCLVKDYFPEPVTVSWNSGALTSGVHTFPAVLQSSGLYSLSSVVTVPSSSLGTQTYICNVNHKPSNTKVDKKVEPKSCDKTHTCPPCPAPEAAGGPSVFLFPPKPKDTLMISRTPEVTCVVVDVSHEDPEVKFNWYVDGVEVHNAKTKPREEQYASTYRVVSVLTVLHQDWLNGKEYKCKVSNKALPAPIEKTISKAKGQPREPQVYTLPPSRCELTKNQVSLSCAVKGFYPSDIAVEWESNGQPENNYKTTPPVLDSDGSFFLVSKLTVDKSRWQQGNVFSCSVMHEALHNHYTQKSLSLSPDYKDDDDK
chain: EPKSSDKTHTCPPCPAPELLGGPSVFLFPPKPKDTLMISRTPEVTCVVVDVSHEDPEVKFNWYVDGVEVHNAKTKPREEQYNSTYRVVSVLTVLHQDWLNGKEYKCKVSNKALPAPIEKTISKAKGQPREPQVCTLPPSRDELTKNQVSLWCLVKGFYPSDIAVEWESNGQPENNYKTTPPVLDSDGSFFLYSKLTVDKSRWQQGNVFSCSVMHEALHNRYTQKSLSLSP
light: DIVMTQSPLSLPVTPGEPASISCRSSQSLVHSNRNTYLHWYQQKPGQAPRLLIYKVSNRFSGVPDRFSGSGSGTDFTLKISRVEAEDVGVYYCGQGTQVPYTFGQGTKLEIKRTVAAPSVFIFPPSDEQLKSGTASVVCLLNNFYPREAKVQWKVDNALQSGNSQESVTEQDSKDSTYSLSSTLTLSKADYEKHKVYACEVTHQGLSSPVTKSFNRGEC
notes: As m48
Human CD154
  relative ECL reaction (to no antigen coating): 13

B5: 154R5F08#3 one-arm antibody (antibody, human IgG1, kappa, L234A L235A, N297A)
heavy: QVQLVESGGGLVQPGRSLRLSCAASGFTFSNAWMHWVRQAPGKGLEWVAQIKDKGNQYATYYAESVKGRYTISRDDSKNSIYLQMNSLKTEDTAVYYCRYVHYGTYFFALPAFGVDIWGQGTTVTVSSASTKGPSVFPLAPSSKSTSGGTAALGCLVKDYFPEPVTVSWNSGALTSGVHTFPAVLQSSGLYSLSSVVTVPSSSLGTQTYICNVNHKPSNTKVDKKVEPKSCDKTHTCPPCPAPEAAGGPSVFLFPPKPKDTLMISRTPEVTCVVVDVSHEDPEVKFNWYVDGVEVHNAKTKPREEQYASTYRVVSVLTVLHQDWLNGKEYKCKVSNKALPAPIEKTISKAKGQPREPQVYTLPPSRCELTKNQVSLSCAVKGFYPSDIAVEWESNGQPENNYKTTPPVLDSDGSFFLVSKLTVDKSRWQQGNVFSCSVMHEALHNHYTQKSLSLSPDYKDDDDK
chain: EPKSSDKTHTCPPCPAPELLGGPSVFLFPPKPKDTLMISRTPEVTCVVVDVSHEDPEVKFNWYVDGVEVHNAKTKPREEQYNSTYRVVSVLTVLHQDWLNGKEYKCKVSNKALPAPIEKTISKAKGQPREPQVCTLPPSRDELTKNQVSLWCLVKGFYPSDIAVEWESNGQPENNYKTTPPVLDSDGSFFLYSKLTVDKSRWQQGNVFSCSVMHEALHNRYTQKSLSLSP
light: DIVMTQSPLSLPVTPGEPASISCRSSQSLVHSNRNTYLHWYQQKPGQAPRLLIYKVSNRFSGVPDRFSGSGSGTDFTLKISRVEAEDVGVYYCGQGTQVPYTFGQGTKLEIKRTVAAPSVFIFPPSDEQLKSGTASVVCLLNNFYPREAKVQWKVDNALQSGNSQESVTEQDSKDSTYSLSSTLTLSKADYEKHKVYACEVTHQGLSSPVTKSFNRGEC
notes: As m48
Human CD154
  relative ECL reaction (to no antigen coating): 10

B6: One-arm antibody: NNS6f47 (CE115HA340 with HFMWWG inserted between Kabat positions 99 and 100) / Kn010G3 / GLS3000-kappa (antibody)
chain 1: QVQLVESGGGLVQPGRSLRLSCAASGFTFSNAWMHWVRQAPGKGLEWVAQIKDKSNNYATYYAESVKGRFTISRDDSKNSIYLQMNSLKTEDTAVYYCRYVHYAAHFMWWGYYGVDAWGQGTTVTVSSASTKGPSVFPLAPSSKSTSGGTAALGCLVKDYFPEPVTVSWNSGALTSGVHTFPAVLQSSGLYSLSSVVTVPSSSLGTQTYICNVNHKPSNTKVDKKVEPKSCDKTHTCPPCPAPEAAGGPSVFLFPPKPKDTLMISRTPEVTCVVVDVSHEDPEVKFNWYVDGVEVHNAKTKPREEQYASTYRVVSVLTVLHQDWLNGKEYKCKVSNKALPAPIEKTISKAKGQPREPQVYTLPPSRCELTKNQVSLSCAVKGFYPSDIAVEWESNGQPENNYKTTPPVLDSDGSFFLVSKLTVDKSRWQQGNVFSCSVMHEALHNHYTQKSLSLSPDYKDDDDK
chain 2: EPKSSDKTHTCPPCPAPELLGGPSVFLFPPKPKDTLMISRTPEVTCVVVDVSHEDPEVKFNWYVDGVEVHNAKTKPREEQYNSTYRVVSVLTVLHQDWLNGKEYKCKVSNKALPAPIEKTISKAKGQPREPQVCTLPPSRDELTKNQVSLWCLVKGFYPSDIAVEWESNGQPENNYKTTPPVLDSDGSFFLYSKLTVDKSRWQQGNVFSCSVMHEALHNRYTQKSLSLSP
chain 3: DIVMTQSPLSLPVTPGEPASISCRSSQSLVHSNRNTYLHWYQQKPGQAPRLLIYKVSNRFSGVPDRFSGSGSGTDFTLKISRVEAEDVGVYYCGQGTQVPYTFGQGTKLEIKRTVAAPSVFIFPPSDEQLKSGTASVVCLLNNFYPREAKVQWKVDNALQSGNSQESVTEQDSKDSTYSLSSTLTLSKADYEKHKVYACEVTHQGLSSPVTKSFNRGEC
CD3ε homodimer protein
  Kd: 31 nM
